Source: US12679878B2, “CRF2 receptor agonists and their use in therapy” (SANOFI, priority 2020, dated 2026)
Starred links: 1 amine or outer side, 2 acyl side, 3 side chain; linkers in the order of their positions; H or OH if unused. Non-standard residues stand in square brackets, D forms with d. Groups on a side chain read outwards from the residue. No end group written: not given here. *: point of attachment. C18 diacid = O=C(O)CCCCCCCCCCCCCCCCC(=O)*; γGlu = O=C(O)[C@H](CCC(=O)[*:2])N[*:1]; Palmitoyl = CCCCCCCCCCCCCCCC(=O)*; AEEA = NCCOCCOCC(=O)O; Aib = CC(C)(N)C(=O)O

Biological target: T1, anti-target CRF1R receptor (UniProt P34998 24-415, limits assumed)
T1 sequence (looked up): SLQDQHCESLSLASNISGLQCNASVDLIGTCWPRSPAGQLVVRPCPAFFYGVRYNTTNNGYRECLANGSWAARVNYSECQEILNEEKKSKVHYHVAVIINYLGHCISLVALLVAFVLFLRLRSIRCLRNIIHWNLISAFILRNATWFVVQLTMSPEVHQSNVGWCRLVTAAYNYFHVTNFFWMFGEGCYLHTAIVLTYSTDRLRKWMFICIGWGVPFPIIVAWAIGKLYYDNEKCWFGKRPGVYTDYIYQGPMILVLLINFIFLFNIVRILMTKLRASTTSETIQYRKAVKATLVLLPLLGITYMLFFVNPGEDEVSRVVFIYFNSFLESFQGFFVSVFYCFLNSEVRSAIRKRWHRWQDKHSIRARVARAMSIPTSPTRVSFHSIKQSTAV
Assay: cell-based or functional assay

Row | Binder | EC50[nM] 0% HSA (cAMP, CRF1R-overexpression CHO cells) [nM] | Emax (%) (cAMP, CRF1R-overexpression CHO cells)
1 | IVLSLD[dV]PTKLK([γGlu-Palmitoyl])QKLLKQERQRKEREQAEKNVRILERV-NH2 (not fully specified; printed as IVLSLDvPTKLK*QKLLKQERQRKEREQAEKNVRILERV-NH2) [peptide of SEQ ID NO: 32] | > 1000 | 27
2 | FTLSLDVPTKIK([γGlu-Palmitoyl])QKLLKQEKQRKQKQKAKTNAKILARV-NH2 (N-terminus assumed; SMILES CCCCCCCCCCCCCCCC(=O)N[C@@H](CCC(=O)NCCCC[C@H](NC(=O)[C@@H](NC(=O)[C@H](CCCCN)NC(=O)[C@@H](NC(=O)[C@@H]1CCCN1C(=O)[C@@H](NC(=O)[C@H](CC(=O)O)NC(=O)[C@H](CC(C)C)NC(=O)[C@H](CO)NC(=O)[C@H](CC(C)C)NC(=O)[C@@H](NC(=O)[C@@H](N)Cc1ccccc1)[C@@H](C)O)C(C)C)[C@@H](C)O)[C@@H](C)CC)C(=O)N[C@@H](CCC(N)=O)C(=O)N[C@@H](CCCCN)C(=O)N[C@@H](CC(C)C)C(=O)N[C@@H](CC(C)C)C(=O)N[C@@H](CCCCN)C(=O)N[C@@H](CCC(N)=O)C(=O)N[C@@H](CCC(=O)O)C(=O)N[C@@H](CCCCN)C(=O)N[C@@H](CCC(N)=O)C(=O)N[C@@H](CCCNC(=N)N)C(=O)N[C@@H](CCCCN)C(=O)N[C@@H](CCC(N)=O)C(=O)N[C@@H](CCCCN)C(=O)N[C@@H](CCC(N)=O)C(=O)N[C@@H](CCCCN)C(=O)N[C@@H](C)C(=O)N[C@@H](CCCCN)C(=O)N[C@H](C(=O)N[C@@H](CC(N)=O)C(=O)N[C@@H](C)C(=O)N[C@@H](CCCCN)C(=O)N[C@H](C(=O)N[C@@H](CC(C)C)C(=O)N[C@@H](C)C(=O)N[C@@H](CCCNC(=N)N)C(=O)N[C@H](C(N)=O)C(C)C)[C@@H](C)CC)[C@@H](C)O)C(=O)O) [peptide of SEQ ID NO: 14] | > 1000 | 14.1
3 | Ac-IVLSLD[dV]PIKLK([AEEA-AEEA-γGlu-C18 diacid])QILLEQERQE[Aib]EREQAEKNEQILEQV-NH2 (SMILES CC[C@H](C)[C@H](NC(C)=O)C(=O)N[C@H](C(=O)N[C@@H](CC(C)C)C(=O)N[C@@H](CO)C(=O)N[C@@H](CC(C)C)C(=O)N[C@@H](CC(=O)O)C(=O)N[C@@H](C(=O)N1CCC[C@H]1C(=O)N[C@H](C(=O)N[C@@H](CCCCN)C(=O)N[C@@H](CC(C)C)C(=O)N[C@@H](CCCCNC(=O)COCCOCCNC(=O)COCCOCCNC(=O)CC[C@H](NC(=O)CCCCCCCCCCCCCCCCC(=O)O)C(=O)O)C(=O)N[C@@H](CCC(N)=O)C(=O)N[C@H](C(=O)N[C@@H](CC(C)C)C(=O)N[C@@H](CC(C)C)C(=O)N[C@@H](CCC(=O)O)C(=O)N[C@@H](CCC(N)=O)C(=O)N[C@@H](CCC(=O)O)C(=O)N[C@@H](CCCNC(=N)N)C(=O)N[C@@H](CCC(N)=O)C(=O)N[C@@H](CCC(=O)O)C(=O)NC(C)(C)C(=O)N[C@@H](CCC(=O)O)C(=O)N[C@@H](CCCNC(=N)N)C(=O)N[C@@H](CCC(=O)O)C(=O)N[C@@H](CCC(N)=O)C(=O)N[C@@H](C)C(=O)N[C@@H](CCC(=O)O)C(=O)N[C@@H](CCCCN)C(=O)N[C@@H](CC(N)=O)C(=O)N[C@@H](CCC(=O)O)C(=O)N[C@@H](CCC(N)=O)C(=O)N[C@H](C(=O)N[C@@H](CC(C)C)C(=O)N[C@@H](CCC(=O)O)C(=O)N[C@@H](CCC(N)=O)C(=O)N[C@H](C(N)=O)C(C)C)[C@@H](C)CC)[C@@H](C)CC)[C@@H](C)CC)C(C)C)C(C)C) [peptide of SEQ ID NO: 161] | > 1000 | 3.42
4 | IVLSLD[dV]PTKLK([γGlu-Palmitoyl])QKLLKQERQR[Aib]EREQAEKNKRILERV-NH2 (N-terminus assumed; SMILES CCCCCCCCCCCCCCCC(=O)N[C@@H](CCC(=O)NCCCC[C@H](NC(=O)[C@H](CC(C)C)NC(=O)[C@H](CCCCN)NC(=O)[C@@H](NC(=O)[C@@H]1CCCN1C(=O)[C@H](NC(=O)[C@H](CC(=O)O)NC(=O)[C@H](CC(C)C)NC(=O)[C@H](CO)NC(=O)[C@H](CC(C)C)NC(=O)[C@@H](NC(=O)[C@@H](N)[C@@H](C)CC)C(C)C)C(C)C)[C@@H](C)O)C(=O)N[C@@H](CCC(N)=O)C(=O)N[C@@H](CCCCN)C(=O)N[C@@H](CC(C)C)C(=O)N[C@@H](CC(C)C)C(=O)N[C@@H](CCCCN)C(=O)N[C@@H](CCC(N)=O)C(=O)N[C@@H](CCC(=O)O)C(=O)N[C@@H](CCCNC(=N)N)C(=O)N[C@@H](CCC(N)=O)C(=O)N[C@@H](CCCNC(=N)N)C(=O)NC(C)(C)C(=O)N[C@@H](CCC(=O)O)C(=O)N[C@@H](CCCNC(=N)N)C(=O)N[C@@H](CCC(=O)O)C(=O)N[C@@H](CCC(N)=O)C(=O)N[C@@H](C)C(=O)N[C@@H](CCC(=O)O)C(=O)N[C@@H](CCCCN)C(=O)N[C@@H](CC(N)=O)C(=O)N[C@@H](CCCCN)C(=O)N[C@@H](CCCNC(=N)N)C(=O)N[C@H](C(=O)N[C@@H](CC(C)C)C(=O)N[C@@H](CCC(=O)O)C(=O)N[C@@H](CCCNC(=N)N)C(=O)N[C@H](C(N)=O)C(C)C)[C@@H](C)CC)C(=O)O) [peptide of SEQ ID NO: 19] | 571 | 57.4
5 | Ac-IVLSLD[dV]PIKLK([AEEA-AEEA-γGlu-C18 diacid])QILLEQERQE[Aib]EREQAETNKQILEQV-NH2 (SMILES CC[C@H](C)[C@H](NC(C)=O)C(=O)N[C@H](C(=O)N[C@@H](CC(C)C)C(=O)N[C@@H](CO)C(=O)N[C@@H](CC(C)C)C(=O)N[C@@H](CC(=O)O)C(=O)N[C@@H](C(=O)N1CCC[C@H]1C(=O)N[C@H](C(=O)N[C@@H](CCCCN)C(=O)N[C@@H](CC(C)C)C(=O)N[C@@H](CCCCNC(=O)COCCOCCNC(=O)COCCOCCNC(=O)CC[C@H](NC(=O)CCCCCCCCCCCCCCCCC(=O)O)C(=O)O)C(=O)N[C@@H](CCC(N)=O)C(=O)N[C@H](C(=O)N[C@@H](CC(C)C)C(=O)N[C@@H](CC(C)C)C(=O)N[C@@H](CCC(=O)O)C(=O)N[C@@H](CCC(N)=O)C(=O)N[C@@H](CCC(=O)O)C(=O)N[C@@H](CCCNC(=N)N)C(=O)N[C@@H](CCC(N)=O)C(=O)N[C@@H](CCC(=O)O)C(=O)NC(C)(C)C(=O)N[C@@H](CCC(=O)O)C(=O)N[C@@H](CCCNC(=N)N)C(=O)N[C@@H](CCC(=O)O)C(=O)N[C@@H](CCC(N)=O)C(=O)N[C@@H](C)C(=O)N[C@@H](CCC(=O)O)C(=O)N[C@H](C(=O)N[C@@H](CC(N)=O)C(=O)N[C@@H](CCCCN)C(=O)N[C@@H](CCC(N)=O)C(=O)N[C@H](C(=O)N[C@@H](CC(C)C)C(=O)N[C@@H](CCC(=O)O)C(=O)N[C@@H](CCC(N)=O)C(=O)N[C@H](C(N)=O)C(C)C)[C@@H](C)CC)[C@@H](C)O)[C@@H](C)CC)[C@@H](C)CC)C(C)C)C(C)C) [peptide of SEQ ID NO: 160] | > 1000 | 20.8
6 | IVLSLD[dV]PTKLK([γGlu-Palmitoyl])QKLLKQERQRKE[Aib]EQAEKNKRILERV-NH2 (N-terminus assumed; SMILES CCCCCCCCCCCCCCCC(=O)N[C@@H](CCC(=O)NCCCC[C@H](NC(=O)[C@H](CC(C)C)NC(=O)[C@H](CCCCN)NC(=O)[C@@H](NC(=O)[C@@H]1CCCN1C(=O)[C@H](NC(=O)[C@H](CC(=O)O)NC(=O)[C@H](CC(C)C)NC(=O)[C@H](CO)NC(=O)[C@H](CC(C)C)NC(=O)[C@@H](NC(=O)[C@@H](N)[C@@H](C)CC)C(C)C)C(C)C)[C@@H](C)O)C(=O)N[C@@H](CCC(N)=O)C(=O)N[C@@H](CCCCN)C(=O)N[C@@H](CC(C)C)C(=O)N[C@@H](CC(C)C)C(=O)N[C@@H](CCCCN)C(=O)N[C@@H](CCC(N)=O)C(=O)N[C@@H](CCC(=O)O)C(=O)N[C@@H](CCCNC(=N)N)C(=O)N[C@@H](CCC(N)=O)C(=O)N[C@@H](CCCNC(=N)N)C(=O)N[C@@H](CCCCN)C(=O)N[C@@H](CCC(=O)O)C(=O)NC(C)(C)C(=O)N[C@@H](CCC(=O)O)C(=O)N[C@@H](CCC(N)=O)C(=O)N[C@@H](C)C(=O)N[C@@H](CCC(=O)O)C(=O)N[C@@H](CCCCN)C(=O)N[C@@H](CC(N)=O)C(=O)N[C@@H](CCCCN)C(=O)N[C@@H](CCCNC(=N)N)C(=O)N[C@H](C(=O)N[C@@H](CC(C)C)C(=O)N[C@@H](CCC(=O)O)C(=O)N[C@@H](CCCNC(=N)N)C(=O)N[C@H](C(N)=O)C(C)C)[C@@H](C)CC)C(=O)O) [peptide of SEQ ID NO: 21] | 618 | 59.2
